# Measurements taken from patent publication US20040092720A1 (US Dept. of Health and Human Services, published 2004).
# Where two headings read alike, the source gives them in different places.
# Key:
# recombinant human IL-6 [1] = molecular target: T1, recombinant human IL-6 (human, UniProt P05231 30-212, labeled with radioactive iodine); assay: radioiodinated IL-6 on peptide array
# T1 construct: Labeled probe in solution, added to wells that carry the synthetic peptides; also called IL-6 ligand; Interleukin-6
# recombinant human IL-6 [2] = molecular target: T1, recombinant human IL-6; assay: radioiodinated IL-6 on peptide array; remark: listed apart in the source
# Procedure: Synthetic peptide arrays were constructed in 96-well microtiter plates in accordance with the method set forth in WO 91/02714 (Saxinger), and used to test the binding of recombinant human IL-6 that had been labeled with radioactive iodine (radiolabeling by standard methods). After incubating the radiolabeled IL-6 ligand in a well with each synthetic peptide, a washing step was performed to remove unbound label, and the relative level of radioactivity remaining in each well of the plate was evaluated to determine the relative affinity of each peptide for IL-6 ligand.
Binder,Counts/minute bound (recombinant human IL-6 [1]) [counts/minute],Counts/minute bound (recombinant human IL-6 [2]) [counts/minute]
SLTSDTLYMVRMAAYTDEGGKDGP [Peptide E59],1270,
SLTTKAVLLVRKFQNS [Peptide B22],,12600
